Reference: PMC5549993, “Bacterial effector NleL promotes enterohemorrhagic E. coli-induced attaching and effacing lesions by ubiquitylating and inactivating JNK” (PLoS Pathogens, 2017)
Where a chain is given by its changes, count along the chain named.

Columns and labels:
[1] = target: T1, GST-tagged NleL C753A mutant (E. coli O157:H7 Sakai strain, UniProt A0A0H3JDV8 1-782, C753A); test: pull-down; conditions: both partners purified
T1 construct: also called GST-NleL-CA; NleL-CA
T1 sequence: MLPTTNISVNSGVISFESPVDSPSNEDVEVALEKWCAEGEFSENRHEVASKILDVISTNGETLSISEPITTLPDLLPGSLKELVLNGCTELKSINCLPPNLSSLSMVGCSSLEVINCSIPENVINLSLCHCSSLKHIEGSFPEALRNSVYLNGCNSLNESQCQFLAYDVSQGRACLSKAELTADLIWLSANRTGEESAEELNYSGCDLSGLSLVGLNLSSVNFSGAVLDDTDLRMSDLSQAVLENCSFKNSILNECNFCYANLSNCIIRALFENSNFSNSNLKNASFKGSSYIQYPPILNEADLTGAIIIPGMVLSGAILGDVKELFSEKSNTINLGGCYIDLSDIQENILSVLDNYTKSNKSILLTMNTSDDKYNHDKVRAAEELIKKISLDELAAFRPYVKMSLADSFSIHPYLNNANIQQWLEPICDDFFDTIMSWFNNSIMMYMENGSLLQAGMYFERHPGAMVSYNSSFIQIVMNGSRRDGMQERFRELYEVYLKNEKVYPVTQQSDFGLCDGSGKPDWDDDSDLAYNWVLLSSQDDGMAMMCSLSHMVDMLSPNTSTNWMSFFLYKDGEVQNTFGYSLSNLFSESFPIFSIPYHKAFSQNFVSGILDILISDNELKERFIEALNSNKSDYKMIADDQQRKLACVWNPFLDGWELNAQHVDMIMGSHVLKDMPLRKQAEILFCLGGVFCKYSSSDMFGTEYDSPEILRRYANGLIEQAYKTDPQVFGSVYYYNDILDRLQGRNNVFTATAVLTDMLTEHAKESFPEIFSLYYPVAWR

[2] = target: T2, GST-tagged wild-type NleL (full length) (E. coli O157:H7 Sakai strain, UniProt A0A0H3JDV8 1-782); test: pull-down; conditions: both partners purified
T2 construct: also called GST-NleL; EspX7; source: E. coli BL21 (DE3), purified (Glutathione Sepharose)
T2 sequence: T1 sequence with A753C

B1: His6-tagged JNK1 purified from bacteria (enzyme, human, UniProt P45983-2 1-384, looked up)
chain: MSRSKRDNNFYSVEIGDSTFTVLKRYQNLKPIGSGAQGIVCAAYDAILERNVAIKKLSRPFQNQTHAKRAYRELVLMKCVNHKNIIGLLNVFTPQKSLEEFQDVYIVMELMDANLCQVIQMELDHERMSYLLYQMLCGIKHLHSAGIIHRDLKPSNIVVKSDCTLKILDFGLARTAGTSFMMTPYVVTRYYRAPEVILGMGYKENVDLWSVGCIMGEMVCHKILFPGRDYIDQWNKVIEQLGTPCPEFMKKLQPTVRTYVENRPKYAGYSFEKLFPDVLFPADSEHNKLKASQARDLLSKMLVIDASKRISVDEALQHPYINVWYDPSEAEAPPPKIPDKQLDEREHTIEEWKELIYKEVMDLEERTKNGVIRGQPSPLAQVQQ
notes: human JNK1α1 (MAPK8), in pET28a with 6x His tag; also called His-JNK1; source: E. coli BL21 (DE3), purified (Ni-NTA)
- binding result [1]: binds
- binding result [2]: binds
